In patent publication US20120316071A1 (published 2012):
Numbering of substitutions follows the chain as printed. Numbers in names are those of the source. Values belong to the binder of their own block, whether it stands above or below them.

Legend:
[1] = molecular target: T1, Recombinant Human DLL4 (delta-like protein 4) (human, UniProt Q9NR61 27-524); assay: SPR, Fab on recombinant human DLL4
T1 construct: Bought recombinant human DLL4 (R&D Systems Cat#1506-D4/CF); also called rHuman DLL4; Delta-like ligand 4

[2] = molecular target: T2, Recombinant Human DLL4 (delta-like protein 4) (human, UniProt Q9NR61 27-524); assay: ECL (MSD) binding assay, immobilised DLL4, 10 nM Fab;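 further: fab binding read as electrochemiluminescence via a TAG-labelled detection antibody, 1 h incubations at 20 °C, antigen signal compared with each well's blank, ratio of at least 4 scored as binder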
T2 construct: Bought recombinant human DLL4 (R&D Systems Cat#1506-D4/CF); also called rHuman DLL4

[3] = molecular target: T2, Recombinant Human DLL4 (delta-like …); assay: ELISA, DLL4-coated plate, 100 nM Fab
[4] = molecular target: T3, Recombinant Human DLL4 (delta-like protein 4) (human, UniProt Q9NR61 27-524); assay: ELISA, DLL4 coated on plate, Fab at 100 nM
T3 construct: also called rHuman DLL4; Delta-like 4

B1: Fab VH1-46_IGHD6-6*01_IGHJ1*01 & L6_IGKJ1*01 (Fab, V domains shown)
VH: QVQLVQSGAEVKKPGASVKVSCKASGYTFTSYYMHWVRQAPGQGLEWMGIINPSGGSTSYAQKFQGRVTMTRDTSTSTVYMELSSLRSEDTAVYYCAREEYSSSSAEYFQHWGQGTLVTVSS
VL: not shown
notes: Fab expressed in E. coli; VH was cloned into Plasmid A (heavy chain CH1 constant region, His6 and Flag tags) and VL into Plasmid C (kappa CL); also called parental; wildtype
Kd [1]: 730 nM
koff [1]: 0.101 s⁻¹
kon [1]: 163000 M⁻¹ s⁻¹

B4: Fab VH1-46_IGHD6-6*01_IGHJ1*01 S102A/S103P/S104F/H111F I51V/N52L/S54T/G56H (APFF VLTH) & L6_IGKJ1*01 S28N/S30D/S31H (NDH) (Fab, V domains shown)
VH: B1 VH with I51V, N52L, S54T, G56H, S102A, S103P, S104F, H111F
VL: EIVLTQSPATLSLSPGERATLSCRASQNVDHYLAWYQQKPGQAPRLLIYDASNRATGIPARFSGSGSGTDFTLTISSLEPEDFAVYYCQQRSNWPPWTFGQGTKVEIKR
notes: Fab with CH1 (Plasmid A, His6 and Flag tags) and kappa CL (Plasmid C); also called H:APFF VLTH & L:NDH
Kd [1]: 2.7 nM
koff [1]: 0.00113 s⁻¹
kon [1]: 430000 M⁻¹ s⁻¹

B5: Fab VH1-46_IGHD6-6*01_IGHJ1*01 S102A/S103P/S104F/H111F G56H (APFF G56H) & L6_IGKJ1*01 (Fab, V domains shown)
VH: B1 VH with G56H, S102A, S103P, S104F, H111F
VL: not shown
notes: Fab with CH1 (Plasmid A, His6 and Flag tags) and kappa CL (Plasmid C)
Kd [1]: 32.7 nM
koff [1]: 0.0101 s⁻¹
kon [1]: 351000 M⁻¹ s⁻¹

B6: Fab VH1-46_IGHD6-6*01_IGHJ1*01 S102A/S103P/S104F/H111Y (APFY) & L6_IGKJ1*01 (Fab, V domains shown)
VH: B1 VH with S102A, S103P, S104F, H111Y
VL: not shown
notes: as for B5
Kd [1]: 93.1 nM
koff [1]: 0.0317 s⁻¹
kon [1]: 340000 M⁻¹ s⁻¹

B7: Fab VH1-46_IGHD6-6*01_IGHJ1*01 S102A/S103P/S104F (APF) & L6_IGKJ1*01 (Fab, V domains shown)
VH: B1 VH with S102A, S103P, S104F
VL: not shown
notes: Fab with CH1 (Plasmid A, His6 and Flag tags) and kappa CL (Plasmid C); also called H:APF & L:wt; APF triple mutant
Kd [1]: 122 nM
koff [1]: 0.0492 s⁻¹
kon [1]: 405000 M⁻¹ s⁻¹

B10: Fab VH5-51_IGHD5-18*01>3_IGHJ4*01 G100K/G104T & V3-4_IGLJ1*01 (Fab, V domains shown)
VH: EVQLVQSGAEVKKPGESLKISCKGSGYSFTSYWIGWVRQMPGKGLEWMGIIYPGDSDTRYSPSFQGQVTISADKSISTAYLQWSSLKASDTAMYYCARRKYSYTYDYFDYWGQGTLVTVSS
VL: QTVVTQEPSFSVSPGGTVTLTCGLSSGSVSTSYYPSWYQQTPGQAPRTLIYSTNTRSSGVPDRFSGSILGNKAALTITGAQADDESDYYCVLYMGSGISYVFGTGTKVTVL
notes: Fab; expressed with CH1 (His and Flag tags) and lambda CL from the expression plasmids; also called H:KT & L:wt; KT double mutant
ECL Signal [10 nM Fab] [2]: 42900
ELISA Signal [100 nM Fab] [3]: 0.01

B11: Fab VH5-51_IGHD5-18*01>3_IGHJ4*01 G100K/G104T & V3-4_IGLJ1*01 M94E (Fab, V domains shown)
VH: B10 VH
VL: B10 VL with M94E
notes: Fab; expressed with CH1 (His and Flag tags) and lambda CL from the expression plasmids; also called H:KT & M94E
ECL Signal [10 nM Fab] [2]: 32500
ELISA Signal [100 nM Fab] [3]: 0.01

B12: Fab VH5-51_IGHD5-18*01>3_IGHJ4*01 G100K/G104T G24T/S28R/G35V & V3-4_IGLJ1*01 V91L/S96P T53H (Fab, V domains shown)
VH: B10 VH with G24T, S28R, G35V
VL: B10 VL with T53H, V91L, S96P
notes: Fab expressed in E. coli; heavy chain vector adds CH1 with His6 and Flag tags, light chain vector adds lambda CL; also called H:KT TRV & L:LP T53H
ELISA Signal-blank (100 nM Fab) [4]: 0.14

B13: Fab VH5-51_IGHD5-18*01>3_IGHJ4*01 G100K/G104T G24T/S28R/G35V & V3-4_IGLJ1*01 V91L/S96P S52M (Fab, V domains shown)
VH: B10 VH with G24T, S28R, G35V
VL: B10 VL with S52M, V91L, S96P
notes: Fab expressed in E. coli; heavy chain vector adds CH1 with His6 and Flag tags, light chain vector adds lambda CL; also called H:KT TRV & L:LP S52M
ELISA Signal-blank (100 nM Fab) [4]: 0.46

B16: Fab VH5-51_IGHD5-18*01>3_IGHJ4*01 G100K/G104T G24T/S28R/G35V & V3-4_IGLJ1*01 V91L/S96P S52K (Fab, V domains shown)
VH: B10 VH with G24T, S28R, G35V
VL: B10 VL with S52K, V91L, S96P
notes: Fab expressed in E. coli; heavy chain vector adds CH1 with His6 and Flag tags, light chain vector adds lambda CL; also called H:KT TRV & L:LP S52K
ELISA Signal-blank (100 nM Fab) [4]: 0.32

B17: Fab VH5-51_IGHD5-18*01>3_IGHJ4*01 G100K/G104T G24T/S28R/G35V & V3-4_IGLJ1*01 V91L/S96P S52P (Fab, V domains shown)
VH: B10 VH with G24T, S28R, G35V
VL: B10 VL with S52P, V91L, S96P
notes: Fab expressed in E. coli; heavy chain vector adds CH1 with His6 and Flag tags, light chain vector adds lambda CL; also called H:KT TRV & L:LP S52P
ELISA Signal-blank (100 nM Fab) [4]: 0.32

Next, values leading:

Kd [1]: 1.7 nM
koff [1]: 0.00109 s⁻¹
kon [1]: 684000 M⁻¹ s⁻¹
B2: Fab VH1-46_IGHD6-6*01_IGHJ1*01 S102A/S103P/S104F/H111F I51V/N52L/S54T/G56H (APFF VLTH) & L6_IGKJ1*01 S28N/S30D/S31H S52L/A55S (NDH LS) (Fab, V domains shown)
VH: B1 VH with I51V, N52L, S54T, G56H, S102A, S103P, S104F, H111F
VL: B4 VL with S52L, A55S
notes: Fab with CH1 (Plasmid A, His6 and Flag tags) and kappa CL (Plasmid C); also called H:APFF VLTH & L:NDH LS

Kd [1]: 380 nM
koff [1]: 0.19 s⁻¹
kon [1]: 500000 M⁻¹ s⁻¹
B3: Fab VH1-46_IGHD6-6*01_IGHJ1*01 S104F & L6_IGKJ1*01 (Fab, V domains shown)
VH: B1 VH with S104F
VL: not shown
notes: as for B5

Kd [1]: 70.6 nM
koff [1]: 0.03 s⁻¹
kon [1]: 425000 M⁻¹ s⁻¹
B8: Fab VH1-46_IGHD6-6*01_IGHJ1*01 S102A/S103P/S104F/H111F (APFF) & L6_IGKJ1*01 (Fab, V domains shown)
VH: B1 VH with S102A, S103P, S104F, H111F
VL: not shown
notes: Fab with CH1 (Plasmid A, His6 and Flag tags) and kappa CL (Plasmid C); also called H:APFF & L:wt

Kd [1]: 112 nM
koff [1]: 0.0392 s⁻¹
kon [1]: 350000 M⁻¹ s⁻¹
B9: Fab VH1-46_IGHD6-6*01_IGHJ1*01 S102A/S103P/S104F (APF) & L6_IGKJ1*01 S31K (Fab, V domains shown)
VH: B1 VH with S102A, S103P, S104F
VL: B4 VL with N28S, D30S, H31K
notes: as for B5

ELISA Signal-blank (100 nM Fab) [4]: 0.15
B14: Fab VH5-51_IGHD5-18*01>3_IGHJ4*01 G100K/G104T G24T/S28R/G35V & V3-4_IGLJ1*01 V91L/S96P T53F (Fab, V domains shown)
VH: B10 VH with G24T, S28R, G35V
VL: B10 VL with T53F, V91L, S96P
notes: Fab expressed in E. coli; heavy chain vector adds CH1 with His6 and Flag tags, light chain vector adds lambda CL; also called H:KT TRV & L:LP T53F

ELISA Signal-blank (100 nM Fab) [4]: 0.39
B15: Fab VH5-51_IGHD5-18*01>3_IGHJ4*01 G100K/G104T G24T/S28R/G35V & V3-4_IGLJ1*01 V91L/S96P S52Q (Fab, V domains shown)
VH: B10 VH with G24T, S28R, G35V
VL: B10 VL with S52Q, V91L, S96P
notes: Fab expressed in E. coli; heavy chain vector adds CH1 with His6 and Flag tags, light chain vector adds lambda CL; also called H:KT TRV & L:LP S52Q

ELISA Signal-blank (100 nM Fab) [4]: 0.39
B18: Fab VH5-51_IGHD5-18*01>3_IGHJ4*01 G100K/G104T G24T/S28R/G35V & V3-4_IGLJ1*01 V91L/S96P T53P (Fab, V domains shown)
VH: B10 VH with G24T, S28R, G35V
VL: B10 VL with T53P, V91L, S96P
notes: Fab expressed in E. coli; heavy chain vector adds CH1 with His6 and Flag tags, light chain vector adds lambda CL; also called H:KT TRV & L:LP T53P

ELISA Signal-blank (100 nM Fab) [4]: 0.45
B19: Fab VH5-51_IGHD5-18*01>3_IGHJ4*01 G100K/G104T G24T/S28R/G35V & V3-4_IGLJ1*01 V91L/S96P S52N (Fab, V domains shown)
VH: B10 VH with G24T, S28R, G35V
VL: B10 VL with S52N, V91L, S96P
notes: Fab expressed in E. coli; heavy chain vector adds CH1 with His6 and Flag tags, light chain vector adds lambda CL; also called H:KT TRV & L:LP S52N
